{
  "source": "paper PMC10701690",
  "about": "“Structural characterization of human de novo protein NCYM and its complex with a newly identified DNA aptamer using atomic force microscopy and small-angle X-ray scattering”",
  "key": {"[1]": {"molecular_target": "T1, NCYM (Homo sapiens, UniProt P40205 1-109)", "T1 sequence": "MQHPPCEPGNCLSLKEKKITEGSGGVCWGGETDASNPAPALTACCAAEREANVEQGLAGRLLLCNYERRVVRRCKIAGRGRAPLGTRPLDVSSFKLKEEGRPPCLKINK", "test": "BLI; BLI: 25 C, NCYM 25-400 nM, buffer not stated (selection buffer: 40 mM HEPES pH 7.5, 125 mM NaCl, 5 mM KCl, 1 mM MgCl2, 0.01% Tween 20); AFM: 20 mM Tris-HCl pH 7.4, 10 mM MgCl2, 1 mM EDTA, 25 C, 2 h, NCYM 100 nM, aptamer frame 10 nM; SAXS: 293 K", "settings": "protein: recombinant, tags: N-terminal GST tag cleaved, 8 vector residues left (117 aa; stated for SAXS), label: 5'-biotin (BLI)"}, "[2]": {"molecular_target": "T1, NCYM", "test": "BLI; text gives 299 nM as top of range; BLI: 25 C, NCYM 25-400 nM, buffer not stated (selection buffer: 40 mM HEPES pH 7.5, 125 mM NaCl, 5 mM KCl, 1 mM MgCl2, 0.01% Tween 20); AFM: 20 mM Tris-HCl pH 7.4, 10 mM MgCl2, 1 mM EDTA, 25 C, 2 h, NCYM 100 nM, aptamer frame 10 nM; SAXS: 293 K", "settings": "protein: recombinant; tags: N-terminal GST tag cleaved, 8 vector residues left (117 aa; stated for SAXS); label: 5'-biotin (BLI)"}},
  "data": [
    {"binder": "aptamer No. 1 (ssDNA) DNA: GGAATGTGGTCCCTCGCAATAAATCTATGTACGTTATTCCCCTTTGACCAATGCTGAAATGAGCCCTTTGACCCTGTAC", "values": [
      {"measurement": "Kd", "setting": "[1]; stem-loops predicted by RNAfold, dimer in solution (SAXS)", "result": "176 ± 29.1", "unit": "nM"}
    ]},
    {"binder": "aptamer No. 3 (ssDNA) DNA: GGAATGTGGTCCCTCGCAATAAATCGGGCGTTGTGGAGGGGGCGGTGGGTGGGGGGAAATGAGCCCTTTGACCCTGTAC", "values": [
      {"measurement": "Kd", "setting": "[1]", "result": "53.9 ± 1.06", "unit": "nM"}
    ]},
    {"binder": "aptamer No. 2 (ssDNA) DNA: GGAATGTGGTCCCTCGCAATAAATCGGGGAGGGAGGGTGGGGGCGGTGGGAGGTGGAAATGAGCCCTTTGACCCTGTAC", "values": [
      {"measurement": "Kd", "setting": "[2]", "result": "298 ± 88.7", "unit": "nM"}
    ]}
  ]
}
